Binding affinity data for 133 substances are collected here from patent US20250011363A1, “OPTIMIZED SHORTENED PEPTIDE THAT BINDS TO ACETYLCHOLINE RECEPTOR, AND USE THEREOF” (SKINMED CO., LTD., priority 2021, published 2025).

The assay addresses acetylcholine receptor (Homo sapiens, UniProt P02708). The assay is described as follows: SPR binding affinity (RU) of optimized 5mer/6mer/7mer peptides, Examples 6-7. The following applies: SPR, peptides tested at 10 μM, 6mer-1 Bottom sequence (Table 11). The gist of the method:
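600 peptides per series (5mer, 6mer-1, 6mer-2), made from high- or low-frequency amino acid combinations, are screened by SPR at 10 μM; binding is recorded in RU.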
On the technique in general: In SPR one partner is held on a chip, and binding of the other changes the refractive index at the surface.

acetylcholine receptor, sequence (P02708 21-457): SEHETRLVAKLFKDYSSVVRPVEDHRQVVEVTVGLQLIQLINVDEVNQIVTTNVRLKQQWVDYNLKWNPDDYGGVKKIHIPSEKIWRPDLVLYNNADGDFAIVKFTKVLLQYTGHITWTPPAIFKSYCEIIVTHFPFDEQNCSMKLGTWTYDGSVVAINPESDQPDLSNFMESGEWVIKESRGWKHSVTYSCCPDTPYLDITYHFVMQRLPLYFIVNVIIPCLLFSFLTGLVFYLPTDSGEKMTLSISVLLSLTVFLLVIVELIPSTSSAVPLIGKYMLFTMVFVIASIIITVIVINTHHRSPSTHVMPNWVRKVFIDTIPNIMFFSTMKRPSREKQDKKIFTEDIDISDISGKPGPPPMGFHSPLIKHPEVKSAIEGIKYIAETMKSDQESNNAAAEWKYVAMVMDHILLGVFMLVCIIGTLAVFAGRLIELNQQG

Take 6mer-1-691 (RKPKAR): the Binding affinity (Resonance Units) was 31 Ru.
On the same count and under the same terms, to 6mer-1-692 (RKNTHK) belongs 22 Ru.
Turning to 6mer-1-693 (RKIDMK), the Binding affinity (Resonance Units) is 22 Ru.
Turning to 6mer-1-694 (RKYTKR), where the note is “Resonance Units”, the Binding affinity came out at 27 Ru.
On the same count and under the same terms, to 6mer-1-695 (KRADVK) belongs 13 Ru.
As for 6mer-1-696 (KKHCNR), the Binding affinity (Resonance Units) amounted to 18 Ru.
6mer-1-697 (RRPTNR): the Binding affinity (Resonance Units) amounted to 13 Ru.
Regarding 6mer-1-698 (KRFNHK), the Binding affinity (Resonance Units) turned out to be 27 Ru.
In the case of 6mer-1-699 (RRTTVR), the Binding affinity (Resonance Units) stood at 28 Ru.
Turning to 6mer-1-700 (RKKMWK), the Binding affinity (Resonance Units) stood at 19 Ru.
On the same count and under the same terms, to 6mer-1-701 (RRKTWR) belongs 13 Ru.
On to 6mer-1-702 (KRDWVK), for which, for the setting “Resonance Units”, the Binding affinity turned out to be 31 Ru.
Take 6mer-1-703 (KKFHPR): the Binding affinity (Resonance Units) worked out at 18 Ru.
Same read-out and setting: to 6mer-1-704 (RRMCER) belongs 16 Ru.
On the same count and under the same terms, to 6mer-1-705 (KRTEWR) belongs 12 Ru; to 6mer-1-706 (KRMKDR), 29 Ru.
6mer-1-707 (KRFWPK): the Binding affinity (Resonance Units) worked out at 26 Ru.
As to 6mer-1-708 (KKKHEK), the Binding affinity (Resonance Units) is on record as 14 Ru.
Still for that read-out and setting: to 6mer-1-709 (KKFKPK) belongs 29 Ru.
Take 6mer-1-710 (KKMHHR): the Binding affinity (Resonance Units) amounted to 21 Ru.
On the same count and under the same terms, to 6mer-1-711 (RRATHR) belongs 19 Ru.
On to 6mer-1-712 (KKPSNK), for which the Binding affinity (Resonance Units) is on record as 24 Ru.
Still for that read-out and setting: to 6mer-1-713 (KKATNK) belongs 20 Ru; to 6mer-1-714 (KRTSFK), 25 Ru.
Still for that read-out and setting: to 6mer-1-715 (KRMMVK) belongs 18 Ru; to 6mer-1-716 (RRMPFK), 11 Ru.
On the same count and under the same terms, to 6mer-1-717 (KRHEDR) belongs 22 Ru.
Take 6mer-1-718 (RKFKAR): under “Resonance Units”, the Binding affinity came out at 23 Ru.
In the case of 6mer-1-719 (KKDAEK), the Binding affinity (Resonance Units) worked out at 27 Ru.
On to 6mer-1-720 (RRKHKR), for which the Binding affinity (Resonance Units) is 11 Ru.
As for 6mer-1-721 (RKAMEK), the Binding affinity (Resonance Units) is 22 Ru.
The same measure, in the same setting: to 6mer-1-722 (RRNKVR) belongs 12 Ru.
Same read-out and setting: to 6mer-1-723 (RKMPAK) belongs 33 Ru; to 6mer-1-724 (KRPKNK), 19 Ru; to 6mer-1-725 (KKDKPK), 32 Ru.
As to 6mer-1-726 (KKHSMK), the Binding affinity (Resonance Units) came to 33 Ru.
Consider 6mer-1-727 (RKANGK), for which, where the note is “Resonance Units”, the Binding affinity was 29 Ru.
Regarding 6mer-1-728 (RRDNAR), under “Resonance Units”, the Binding affinity is reported as 23 Ru.
Same read-out and setting: to 6mer-1-729 (KKKSGK) belongs 23 Ru; to 6mer-1-730 (KRATFR), 13 Ru; to 6mer-1-731 (RRIKAR), 18 Ru.
Still for that read-out and setting: to 6mer-1-732 (RRAAVR) belongs 26 Ru; to 6mer-1-733 (KKKMFK), 21 Ru.
Still for that read-out and setting: to 6mer-1-734 (RRTHER) belongs 21 Ru; to 6mer-1-735 (RKDKER), 19 Ru.
For 6mer-1-736 (KKATDK), the Binding affinity (Resonance Units) is on record as 15 Ru.
Still for that read-out and setting: to 6mer-1-737 (RRKNAR) belongs 27 Ru; to 6mer-1-738 (RKYHHR), 25 Ru.
Still for that read-out and setting: to 6mer-1-739 (RKCCEK) belongs 32 Ru.
In the case of 6mer-1-740 (RKDNKR), the Binding affinity (Resonance Units) came to 26 Ru.
Same read-out and setting: to 6mer-1-741 (RKEAGR) belongs 24 Ru; to 6mer-1-742 (RRFHWR), 14 Ru.
On to 6mer-1-743 (KKTMVR), for which the Binding affinity (Resonance Units) came out at 14 Ru.
Take 6mer-1-744 (RKHEIK): where the note is “Resonance Units”, the Binding affinity came out at 31 Ru.
For the substance 6mer-1-745 (KKTMEK), the Binding affinity (Resonance Units) is recorded as 11 Ru.
Still for that read-out and setting: to 6mer-1-746 (RKMSVK) belongs 24 Ru; to 6mer-1-747 (KKTMDR), 24 Ru; to 6mer-1-748 (RKHNGR), 24 Ru.
Same read-out and setting: to 6mer-1-749 (RKPHWR) belongs 33 Ru; to 6mer-1-750 (KRENIK), 33 Ru.
Same read-out and setting: to 6mer-1-751 (RRTNFK) belongs 27 Ru; to 6mer-1-752 (KRPTEK), 16 Ru.
On to 6mer-1-753 (KKDTHK), for which the Binding affinity (Resonance Units) was 12 Ru.
On the same count and under the same terms, to 6mer-1-754 (RKKKMK) belongs 24 Ru; to 6mer-1-755 (RRANMR), 25 Ru; to 6mer-1-756 (RKAKMK), 33 Ru.
In the case of 6mer-1-757 (RKDNEK), for the setting “Resonance Units”, the Binding affinity was determined as 26 Ru.
Regarding 6mer-1-758 (KKYHHR), under “Resonance Units”, the Binding affinity worked out at 33 Ru.
For the substance 6mer-1-759 (RKMTWR), the Binding affinity (Resonance Units) is 23 Ru.
In the case of 6mer-1-760 (KRMMVR), the Binding affinity (Resonance Units) is listed as 21 Ru.
Still for that read-out and setting: to 6mer-1-761 (RKETFR) belongs 33 Ru; to 6mer-1-762 (KKTKAR), 13 Ru.
On the same count and under the same terms, to 6mer-1-763 (RRDCAK) belongs 12 Ru; to 6mer-1-764 (RRNPFK), 24 Ru; to 6mer-1-765 (KRASPK), 25 Ru.
With 6mer-1-766 (RKCTIR), the Binding affinity (Resonance Units) came out at 15 Ru.
With 6mer-1-767 (KRTPDK), the Binding affinity (Resonance Units) worked out at 18 Ru.
Still for that read-out and setting: to 6mer-1-768 (RKFEWK) belongs 32 Ru; to 6mer-1-769 (RKMPVK), 14 Ru; to 6mer-1-770 (RKTNAR), 29 Ru.
Turning to 6mer-1-771 (KKMDIK), the Binding affinity (Resonance Units) is reported as 17 Ru.
Still for that read-out and setting: to 6mer-1-772 (KRNCAK) belongs 12 Ru; to 6mer-1-773 (KRTEIR), 29 Ru.
Regarding 6mer-1-774 (KKEMER), the Binding affinity (Resonance Units) was found to be 21 Ru.
Turning to 6mer-1-775 (KKYPWR), the Binding affinity (Resonance Units) worked out at 12 Ru.
Regarding 6mer-1-776 (KKTSIK), for the setting “Resonance Units”, the Binding affinity is listed as 13 Ru.
Still for that read-out and setting: to 6mer-1-777 (RRHNHR) belongs 16 Ru.
With 6mer-1-778 (RRDDFR), where the note is “Resonance Units”, the Binding affinity was 28 Ru.
Take 6mer-1-779 (RRPDAR): where the note is “Resonance Units”, the Binding affinity is given as 30 Ru.
On the same count and under the same terms, to 6mer-1-780 (KRKCWR) belongs 24 Ru; to 6mer-1-781 (RRHWDK), 16 Ru.
With 6mer-1-782 (KKNAWK), the Binding affinity (Resonance Units) was determined as 30 Ru.
The same measure, in the same setting: to 6mer-1-783 (KKNEFK) belongs 29 Ru.
The same measure, in the same setting: to 6mer-1-784 (KKFTPK) belongs 33 Ru.
With 6mer-1-785 (KKTCER), the Binding affinity (Resonance Units) amounted to 19 Ru.
The same measure, in the same setting: to 6mer-1-786 (KRIKEK) belongs 26 Ru; to 6mer-1-787 (KKESIK), 16 Ru.
6mer-1-788 (RKIPKK): the Binding affinity (Resonance Units) worked out at 22 Ru.
6mer-1-789 (KRMMPK): the Binding affinity (Resonance Units) turned out to be 19 Ru.
Same read-out and setting: to 6mer-1-790 (KKPNPK) belongs 12 Ru.
Regarding 6mer-1-791 (RKPDDK), the Binding affinity (Resonance Units) is on record as 13 Ru.
The same measure, in the same setting: to 6mer-1-792 (KRKDKK) belongs 30 Ru.
Consider 6mer-1-793 (KKTPNR), for which the Binding affinity (Resonance Units) was 31 Ru.
Still for that read-out and setting: to 6mer-1-794 (RKYEPK) belongs 11 Ru; to 6mer-1-795 (KKCHMR), 12 Ru; to 6mer-1-796 (RRHAFK), 28 Ru.
On the same count and under the same terms, to 6mer-1-797 (RRAWNK) belongs 22 Ru.
On to 6mer-1-798 (RRDCFR), for which the Binding affinity came to 18 Ru.
For 6mer-1-799 (RRKKKR), the Binding affinity is recorded as 30 Ru.
Regarding 6mer-1-800 (RREHIR), the Binding affinity amounted to 15 Ru.
Still for that read-out and setting: to 6mer-1-801 (KKCAVK) belongs 18 Ru; to 6mer-1-802 (RKYHGR), 32 Ru.
On the same count and under the same terms, to 6mer-1-803 (RKMKHK) belongs 31 Ru; to 6mer-1-804 (KRDPFR), 31 Ru; to 6mer-1-805 (KRDTMK), 24 Ru.
Regarding 6mer-1-806 (RKKTIR), the Binding affinity amounted to 12 Ru.
Still for that read-out and setting: to 6mer-1-807 (RRDKNR) belongs 13 Ru; to 6mer-1-808 (RRFEKK), 24 Ru.
Regarding 6mer-1-809 (KKKSNR), the Binding affinity was 12 Ru.
For 6mer-1-810 (RKCNAR), the Binding affinity is reported as 12 Ru.
Turning to 6mer-1-811 (KRHCHK), the Binding affinity came to 16 Ru.
6mer-1-812 (RKDHMK): the Binding affinity was 26 Ru.
The same measure, in the same setting: to 6mer-1-813 (RREDFK) belongs 15 Ru; to 6mer-1-814 (KKCNAK), 15 Ru; to 6mer-1-815 (RRFEMR), 23 Ru.
The same measure, in the same setting: to 6mer-1-816 (RKIDFK) belongs 14 Ru; to 6mer-1-817 (RRIMKR), 16 Ru.
Take 6mer-1-818 (RKIKAR): the Binding affinity was found to be 14 Ru.
On the same count and under the same terms, to 6mer-1-819 (KRMHAK) belongs 17 Ru; to 6mer-1-820 (KRNDGK), 12 Ru; to 6mer-1-821 (RRTTNR), 22 Ru.
The same measure, in the same setting: to 6mer-1-822 (KREPIK) belongs 17 Ru; to 6mer-1-823 (KRHTGK), 12 Ru.
